Assay results published in the DeepSol protein solubility set.

Assay: soluble on expression in E. coli; label from the status in PepcDB or PDB records

Sequence	soluble on expression in E. coli
MSLSSAPDIILHRGLFTTLDRSNPAASAVAIADGRFVAVGHDHDVMKLAGPSTKIVDLRGRRVLPGLIDNHLHIIRGGLNFNMELRWDGVRSLATAMDMLKRQVAVTPPPQWVRVVGGFTEHQFAEKRLPTIDELNAVAPDTPVFLLHLYDRAILNGAALRAVGYAKDTPEPPGGEIMRDTKGNPTGLLLAKPNANILYATLAKGPKLPFDYQVNSTRHFMRELNRLGVTGAIDAGGGFQNYPDDYAVIQKLSDEGLLTIRLAYNLFTQKPKGEKADFLNWTKTSKYKQGDDYFRHNGAGEMLVFSAADFEDFRVARPDMPAEMEGELEEVVRVLVQNKWPWRLHATYDETISRALDVFERVNQDIPLEGLHWFFDHAETISDQSIDRIAALGGGIAVQHRMAYQGEYFVERYGAGAAEATPPVKKIIDKGVKVSAGTDATRVASYNPWVSLSWLVTGRTVGGLRITPQRNCLDRETALRMWTENVTWFSNEEGNKGRIQVGQLADLVVPDRDYFSCSEAEIADTTSLLTMVGGRIVYGAGDFSKLESVTPPPAMPDWSPVRRFGGYAAWADDTAKTKDTSLAMKAMQMCGCANSCGVHGHDHAAAWSSRLPVSDLRSFWGALGCACWAVEGHHHHHH	not soluble
MSLSSAYDRKNLEKKNRELRELNDKIGDVAKTFETLQLELYNDLIKEFSKDLTSWNATIDPDNTIRFKEPDVLFDSGKSQVKERFKVVLDDFFPRYVKILSQEKYKGDIEEIRIEGHTSSEWLNAKTLEERYLGNAALSQARAFEVLKYCFALERIKGEQDWLIKVLRANGLSFAKPLDSEEHSRRVEFRTLTRSHQKMLKILDLSKEGHHHHHH	soluble
MSLSSAYQLVIFDWEGTIADTLGVILHTVATEAKMLGFGDIDPYQARKYVDLGLVQAVKKTLPNLTAGQQEDLLQAVQSAMISRPTEVRLIPGVLEFIQQLHQAKVDLAIATNKGHNSLIRALQATELDQLFKVTRSAGQVPAKPCPQMLEEIMEEFGRDPSSTLMIGDSTTDMEMAKRINVNAIGMDFYHQQEDALKAAGALAVFDDYKLLSAYLMLPEAEGHHHHHH	soluble
MSLSSEVVLMKPYEKLVERFNEMAAEFLSYFPTVKSVGNLESELDKRRFVILFRAMLRLRNEVKGYNEFDAEDLTIEEQRFADYQSKYLDMSNEFAITSEKEDAESILQDIDFELELVHRDIINVMYILALLQDLKPESSSYPKDRKAVLDTMDSNPELRSKIALIDNFIKLHIDGRQSNDLPADMESDLDKYIATQKAIAIEQVATEEGIDSTLLHEYISEYEYLGKPKNEIIKRAIDPLKLSFMDAQSKKKSLIDKMKDIIKLFSWNEGHHHHHH	soluble
MSLSSKKLGVILYGPPASGKDTVAQALSELDARYGQFARLKVGSGRTTRYRMGTAEQLHDLEAAGAAIYTNSRYGNTYVIDRPGMDSAFEAGVPVVHLGQIDGIRALVDGYTADWAVVLLWCSQEVTAQRSAGRGDSDTTARLAAWQATREDLDAHPDMRWDLTVDTEATAAEESARLIDQLLHARAGVTEGHHHHHH	soluble
MSLSSLGAPAISAASFLQDLIHRYGEGDSPTLQQLKALLNHLDVGVGRGNVTQHVQGHRNLSTCFSSGDLFTAHNFSEQSRIGSSELQEFCPTILQQLDSRACTSENQENEENEGHHHHHH	soluble
MSLSSPRIIATYHLASDADLVAERAKGLAIEQSVECPLAAVGDPVILDTIVGRVEDIAELTPGRYAVRIGLAAATAPAEPGQLINMLFGNSSMQQDVTLVDVELPPSYLAAFGGPRLGLAGLRALTGTQDRALTASALKPQGLSPAALARIAGQLARGGVDVIKDDHGIADQAYSPFAARVEAVGRAVQEANVARDGHSLYAPNLSGTLDDMRRQLDLAREQGIAAVMVAPMIVGLANFHAVVKAAAGMVVIAHPALSGVTRIAPPLLLGKLFRLFGADATIFPNAGGRFGFSTETCLQLARAGRDPWGALEPCMPVPAGGLTADRVAELLQFYGHDVMLLIGGGLLSARERLTEEAARFVNEVAAHGKAEGHHHHHH	soluble
MSLSSQPRFIHLRTHTDFSMIDSIVKVKPLVKACAANEMVAMGLTDFTNFCGVVSFYSEMLSSGMKPIIGADVKVKSPLCGDEYFDLTLLAKNNEGYRNITLLLSKAYQRGYNDLPYIDQDWLIEHRDGVIILSGGTQGDVGKKLLKENVAEIESAVAFYQEFFADHFYLALSRTGRPNEERYIQAALKLAERCDLPLVATNDVMFLNTEDFEAHEIRVAIHDGYTLDDPKRPKCYTSQQYFRSEEDMCKLFADEGHHHHHH	soluble
MSLSSTNDTIRRLQRDLLFLQNELRFEKFVRQQHLQNIGKLHREHILDMAVESERQKLLLTNKRYKAQIELLNSEIDKHRSESQAALNRRVKWENDFNNKIKALREEKKAWKSEESELKSSIESLISQLESIRNSQIDIAFSKNQLELKLQLYETKLKEYEQHLSCVNISKKQVSSSSDTSFGNTKMDSSMILSNSEAVSDEQERELIESEKHRMKLESENLHLQANIELLKKDLEAINVVYEAKIFDLEKRLSSEANAPELHNPVNLNYDAQLSKISEIKENYDELLTRYRELEGKFLESQAEVEELKNFQKPLVDTGSSIHSSPGLQQSKFIIRNDSLHPKVGPPRRQSTDTSRSTFRQYEGHHHHHH	soluble
MSLSTIREVAKLANVSIATVSRVLNNDTKYKMTEETKNRVLDAVTQLNYIPITTPRKKMTVTNSNICKDAKIGCILRVTKKGYNDPYYMSILAGVETQLREVGIELSFIKSAPILQDKSHLASTFSDSLDGLILMEPLNEDIYHYIKKRVPHVVGIDTLRDDIDDVGYDHLENGILATQHLIEKGHKEIGFIGGSGESQDIKDSKRYQGYVIAMHKAGLPIQKKWIIDCGWNEDECVAKVDALCKSNHYPTAFFAASDLMAMAAMKSFYTNGISVPKRVAVIGMSDIEMSQYSNPPLTTYHVPKEEIGRVATNLLLARIQGYETLPQKIILPTTFVERSSTEGHHHHHH	soluble
MSLSVQREDVDIKLIAIDMDGTLLNDEQLISDENRKAIREAEDKGVYVVISTGRTLMTCRELAESLKLSSFLITANGSEIWDSNFNLVERKLLHTDHIQMMWDLRNKHNTNFWASTVNKVWRGEFPENITDHEWLKFGFDIEDDDIRNEVLEELRKTKSSEITNSSPTNIEVNALGINKAAAPCQGYGKLGFTMENVMAMGDSLNDIAMIKEAGLGVAMGNAQDIVKETADYITDTNIEDGVAKAIRHWVLEGHHHHHH	soluble
MSLSVRVDYALVGRELEAREAVCLVFDGSDGRLSSISSSSSCPESSPKFTIAVPPSVNAHIHSSDVQWPEVGNDLSLEELVAPPRGLKHLLLQQAGERACAEAAVGVYRALGRMVVRAAADFREPAAGGCLPVREILATLGGLYTRVVLMGRPGDPYGLEGCDGIGLNSPLDVDPKRMRLLKKSGMRIHAHVAETREMRLEGDLEAALDIGVDTVIHGTHLSREDLELLREHGVTLVLSPRSNMWHGVGLPPVAEAYRVGVKIAFGTDNAAWNMLDPWDEARQAMLVARLQGVKDPGLPHYILKGLLSWGYEALGMEPPALAEGADMCSVALMRLEGYEAGLFRRSFSRYYTLLKIARGDLLQPVCTISGGLLEPAEGHHHHHH	soluble
MSLSVSEQLFPLTIIHLNDFHARFEETNTVSTRCKPDEGERCIGGYARVVSRVKSLQREYADRNPIYLNAGDNFQGTLWYSLLRWNVTAHFLNLLPADVMTLGNHEFEHGIGGLVPFLDVIDSPVVVTNIDDREEPTLQGKYTKSVVLERGGRKIGVVGVIHHLTNTMGMTERLRFLDEVEQLRMEIGRLKEEGVQHIVVLSHCGLEIDRIIARELPDVDVVVGGHSHTFLYNGTADGFPDDPEDTYPIVVEHPEGRTTLIVQAASYAKYVGRITLYFDEEGNIREWEGNPEFLDSSVPQDEEVLAQLAPWREQVNVQANREGHHHHHH	soluble
MSLSYEYFPGFYDRLMDSELYDEWLEFSADFIGDAPKKVLDLACGTAEFALRLSFSGHQVTGVDLSKEMVAVAKEKVAAAEIDLPIIEQDMSKLALKQTFDVVTCFCDSLNYLETEQALEATIQAVSAHLEPNGLFLFDVHSVFKIEQGFKDYSYGDSDEEISTIWNSFPGEHPHSIEHELTFYILGEDDTYNRVDELHKERTYPIATYENLLKKFGFTKIDIYADFSHEKPNKTSERIFFAARKEGHHHHHH	soluble
MSLSYTTQQIIEKLRELKIVPVIALDNADDILPLADTLAKNGLSVAEITFRSEAAADAIRLLRANRPDFLIAAGTVLTAEQVVLAKSSGADFVVTPGLNPKIVKLCQDLNFPITPGVNNPMAIEIALEMGISAVKFFPAEASGGVKMIKALLGPYAQLQIMPTGGIGLHNIRDYLAIPNIVACGGSWFVEKKLIQSNNWDEIGRLVREVIDIIKEGGSHHHHHH	soluble
MSLTAPLEWKQANFLSISDSHGWLLGHQHSTWPEPNYSGNYGSFASFVIHMRKIADEKGVDLLLIDAGDHHDGSGLVSSSPDSASLAEDIFSMISYDVITIGNHELYHYADALDIYENHERWGGRYVTSNVNITVKREGEWQSVPIGQTHLKFTTKQGYNVTAFGVIFDFKAHDKGITVQKPSKLVHEPWFQEAIRDAPDYFILAGHMPVRGETAEFAPVFDAIRDIHPQVPIFLFGGHTHVRDCVQYDERSIGVVPGKYLETVAFTSSSLPSSSGDDRPLDVARSYQWHTNQTSYTFDTEGHHHHHH	soluble
MSLTDINLKGGKLSIEQLNTIFETIPVEFDFIDENDIIRWSSANRHRLFKRTDADLGKHVLEVHPGHSQNHVKQVLHDMHSGDRDSISIMIKHHGQPVNIAFYALRDDQNKYLGCVEVTQDVSKQQTKGSFWRNIMQVLHKKEGHHHHHH	soluble
MSLTDVEEQQLTVLKDPNCGCCEKWLQALPDSFSVSVQHPNNLTQRKRDSGISAEVQSCHTAISSNGYVFEGHVPPTLVSHYLAGKKSENGIGLTVPGMPVGSVGMEMGTRFQPYTVYEIKKDGSITPYQQIASLEQQQALSNEGLEGHHHHHH	soluble
MSLTDVLTATYELYLAEGESPEGKARGIALEQTVEMPADCLPGDIAERMVGRIRTLEPRADHWVLEIDYPLAAIGGELTQCLNLLFGNISLQSGIRLVQVAWPPSLLRRWGGPGLGVSGLRARLDVGARPLLCAALKPMGLSAPALAARCAAFARGGVDLIKDDHGLADQPDAPFAERLNACQDAVRQANRRSGGRSLYLPNVTAAPQALGERLAAARDAGCEMVLISPWLTGLETLRWARDEYGLALMAHPAMTGGLFLPRHGISPALLLGELFRIAGADAVIYPNVGGRFRFSADTCQAINHALRRPLEGLASAWPTPGGGVDVKRAGHWKQAYGPDTILLIGGSLYAQGDIEAASRALMQAIRDEGHHHHHH	soluble
MSLTEIGIVAVGGYNEMGRNMTAIIIGEDIVILDMGLRLDRVQIHEDVEIDKMHSLELIEMGAIPDDTIMKEINGTVRAIVCTHGHLDHIGAIPKLAHRYNAPILATPYTAAIIRQQIESERKFEVCNRVIPLQAGGTYQVTEDISIEFIRVQHSIIDCVLAAVHTPAGAVLYACDFKLDRTPTMGEAPDFDRFKSLGKEGVIAMITESTNAGRSGKTPSEQIAKDMVRDVLLGTEESGVGMIVTTFASHIARLKAIIEAAEEMGRIPVLMGRSMERYVGAARDIGYLDLPSNVEIYGTRKDVDRAFKRIMQEGKNKYLPIVTGHQGEPGSILVRVANGETPYTIDPGDRIIFSANVIPSPMTQANRYALETKLRMKGGRIYDDVHVSGHAYREDHWELLRMVNPEHVIPAHGDMEMHGHYIEMAEDAGYVLGDTVHLLRNGEVLYIEEEGHHHHHH	soluble
MSLTEWLTIFDSERNTLGKKLRDEVHRDGNWHETFHCWFVEKDAEDMFLYFQLRSKNKKEAPLIWDITSAGHIMHDEDVQIGGLREIEEELGLSFQTTDLAYKGIFTIDYEISNLTDREFCHMYFHNVINPLPFAPGEEVDDVMKIHATSFLQLLKREISSFTATSVLSNKSITITFSDIYPYDFAYYEFVVEQGKELLKNNDEGHHHHHH	soluble
